Measurements reported in patent US7718353B2, “Proteins, sensors, and methods of characterizing analytes using the same” (University of Maryland Baltimore County, priority 2003, dated 2010).
Read-outs that look alike come from different tables or passages of the source.

How the values were obtained:
[1] = Glutamine measurement in lymphoblast cell culture, GlnBP sensor versus YSI; conditions: cell culture medium
Procedure: The cells used in the cell culture came from two different cell lines, GM010178 and GM14649, both lymphoblasts from […]. These cell lines were obtained commercially from Coriell Cell Repositories, and have been grown in a solution of 15% Fetal Bovine Serum in RPMI Medium 1640 with GlutaMAX™ (Gibco™, Grand Island, N.Y.). For the 100 mL cell culture, 50 mL of fresh medium was mixed with 50 mL of inoculum in a 250 mL polystyrene flask, and then incubated in a CO2 incubator (Precision Scientific, Chicago, Ill.) until the color of the medium turned from red to yellow. 1 mL of sample was taken from the culture every 2 h for analysis. […] The glutamine concentration was then measured with a YSI 2700 Chemistry Analyzer and concurrently with the glutamine biosensor by diluting a small volume of sample 1,000 times. […] One microliter of sample was taken each time and the glutamine concentration was measured with the present biosensor thereafter.
As in the determination of glucose, analysis of glutamine by the GlnBP sensor was compared to the YSI Chemistry Analyzer. […] The hydrogen peroxide that is released is detected at the platinum electrode. Since glutamate oxidase can also detect the glutamate that is already present in the media, the reading of the glutamine sensor is actually the sum of glutamine and glutamate in the media. […]

[2] = Reported (literature) binding of glutamine to GlnBP; conditions: yielded by the reported ka and kd; read-out: dissociation constant
Procedure: (§1) This figure seeks to illustrate two things. First, the fluorescence intensity of acrylodan (λmax=515 nm) decreased with increasing concentration of glutamine. Concurrently, the luminescence intensity of Ru remained constant at λmax=610 nm. Second, the standard solutions of glutamine (0.1 to 6.4 mM) were prepared in glutamine-free Dulbecco's modified Eagle media (DMEM), a commonly used media for tissue culture. The resulting solutions were then diluted 1000× with PBS and used in the assay. The submicromolar sensitivity of the protein for glutamine remained virtually unchanged from that observed with the acrylodan label alone, as shown in DATTELBAUM et al., Anal. Biochem., 291:89-95 (2001), which is incorporated by reference herein. […]
The apparent binding constants were calculated by fitting the experimental results to the binding isotherm (DATTELBAUM et al., Anal. Biochem., 291:89-95 (2001), which is incorporated by reference herein). The binding constants for the single-labeled and doubled-labeled GlnBP were calculated to be 0.23±0.01 μM and 0.28±0.03 μM, respectively. […] The binding constant of GBP for glucose was calculated to be 0.78±0.07 μM, which also agrees well with the reported value of 0.8 μM (HELLINGA et al., Trends Biotechnol., 16:183-189 (1998), which is incorporated by reference herein). […]

[3] = Stability and reproducibility of labeled binding proteins by binding assays; format: physicochemical; conditions: 5 months after preparation
Procedure: The stability of the binding proteins was determined by binding assays. The labeled binding proteins can be stored in phosphate buffer at 4° C. for at least 5 months. […] While not wishing to be bound by theory, factors that could have caused this change include fluorophore and protein. In any case, the recalibration of the biosensor during its use in fermentation or cell culture is unnecessary because fermentation or cell culture usually lasts from only several hours to a few days.

[4] = cited from earlier work
[5] = Fluorescence binding isotherm of labeled S179C GlnBP; conditions: fit to binding isotherm, read-out: binding constant for glutamine
Procedure: The emission spectra were recorded on a Varian Cary Eclipse fluorescence spectrophotometer (Varian Instruments, Walnut Creek, Calif.). All samples were measured in quartz cuvettes (Starna Cells, Inc., Atascadero, Calif.).
The apparent binding constants were calculated by fitting the experimental results to the binding isotherm (DATTELBAUM et al., Anal. Biochem., 291:89-95 (2001), which is incorporated by reference herein). The binding constants for the single-labeled and doubled-labeled GlnBP were calculated to be 0.23±0.01 μM and 0.28±0.03 μM, respectively. Both were in agreement with the reported value of 100-300 nM for the wild type (SOHANPAL et al., Sensors Actuators B, 11:547-552 (1993), which is incorporated by reference herein). While not wishing to be bound by theory, the reason for this agreement is believed to be that the position of the fluorophore is far from the binding site, consequently, the binding affinity is not greatly affected. The binding constant of GBP for glucose was calculated to be 0.78±0.07 μM, which also agrees well with the reported value of 0.8 μM (HELLINGA et al., Trends Biotechnol., 16:183-189 (1998), which is incorporated by reference herein).

[6] = Steady-state emission intensity ratio (I515/I610) of Ru-GlnBP-Acr versus glutamine; format: binding
Procedure: Steady-state emission spectra were recorded on a Varian Cary Eclipse spectrofluorimeter (Varin Instruments, Walnut Creek, Calif.). Time-resolved luminescence decays were measured on a frequency domain fluorimeter (ISS-Koala, Champaign, Ill.) with the following modifications. Blue LED LNG992CFBW (Panasonic, Secaucus, N.J.) driven by a current source was used as the excitation source. The modulation voltage was applied through bias T. The standard radiofrequency amplifier for the photomultiplier tubes was replaced with a ZHL-6A 1-circuits, Brooklyn, N.Y.) to enhance the low-frequency performance. The excitation light was filtered by 500-, 550-, and 650 FL07 short-wave pass filters (Andover, Salem, N.H.). The emission light was filtered by a 500 FH90 long-wave pass filter (Andover). Luminescence decay data were analyzed by nonlinear least-squares methods.
as §1, with “assay.” for “assay. The submicromolar sensitivity of the protein for glutamine remained virtually unchanged from that observed with the acrylodan label alone, as shown in DATTELBAUM et al., Anal. Biochem., 291:89-95 (2001), which is incorporated by reference herein.”

B1: GlnBP-Acr: S179C variant of E. coli glutamine-binding protein labeled with acrylodan at cysteine 179 (protein, UniProt P0AEQ3 23-248, looked up, variant S179C)
Glutamine-binding periplasmic …: ADKKLVVATDTAFVPFEFKQGDKYVGFDVDLWAAIAKELKLDYELKPMDFSGIIPALQTKNVDLALAGITITDERKKAIDFSDGYYKSGLLVMVKANNNDVKSVKDLDGKVVAVKSGTGSVDYAKANIKTKDLRQFPNIDNAYMELGTNRADAVLHDTPNILYFIKTAGNGQFKAVGDCLEAQQYGIAFPKGSDELRDKVNGALKTLRENGTYNEIYKKWFGTEPK
modifications: acrylodan label at C179
Q: Which results are given for B1?
A: selectivity: response to glutamine versus glutamate [1]: responsive to glutamine but not to glutamate; Kd [2]: 163 nM; change of calibration curve after storage [3]: underwent some changes in 5 months after preparation, but was still responsive to glutamine; ka for the binding ([4]; reported, WEINER et al.): 9.8e+07 M⁻¹ s⁻¹; kd for the dissociation ([4]; reported, WEINER et al.): 16 s⁻¹; Kd ([5]; listed as single-labeled GlnBP): 230 ± 10 nM; Kd [5]: 200 nM

B2: wild type: wild type glutamine-binding protein, literature dissociation constant (protein, UniProt P0AEQ3 23-248, looked up)
Glutamine-binding periplasmic …: ADKKLVVATDTAFVPFEFKQGDKYVGFDVDLWAAIAKELKLDYELKPMDFSGIIPALQTKNVDLALAGITITDERKKAIDFSDGYYKSGLLVMVKANNNDVKSVKDLDGKVVAVKSGTGSVDYAKANIKTKDLRQFPNIDNAYMELGTNRADAVLHDTPNILYFIKTAGNGQFKAVGDSLEAQQYGIAFPKGSDELRDKVNGALKTLRENGTYNEIYKKWFGTEPK
Q: With B2 as the molecule, how does the Kd ([4]; literature value, read-out: reported dissociation constant for the wild type) read?
A: 100 to 300 nM

B3: Ru-GlnBP-Acr: S179C GlnBP labeled at the cysteine with acrylodan and at the N-terminal with ruthenium bis-(2,2′-bipyridyl)-1,10-phenanthroline-9-isothiocyanate (protein, UniProt P0AEQ3 23-248, looked up, variant S179C)
Glutamine-binding periplasmic …: ADKKLVVATDTAFVPFEFKQGDKYVGFDVDLWAAIAKELKLDYELKPMDFSGIIPALQTKNVDLALAGITITDERKKAIDFSDGYYKSGLLVMVKANNNDVKSVKDLDGKVVAVKSGTGSVDYAKANIKTKDLRQFPNIDNAYMELGTNRADAVLHDTPNILYFIKTAGNGQFKAVGDCLEAQQYGIAFPKGSDELRDKVNGALKTLRENGTYNEIYKKWFGTEPK
modifications: acrylodan; N-terminal ruthenium complex label
notes: S179C GlnBP labeled at the cysteine with acrylodan and at the N-terminal with ruthenium bis-(2,2′-bipyridyl)-1,10-phenanthroline-9-isothiocyanate
Q: Which results are given for B3?
A: Kd [5]: 280 ± 30 nM; interference of other DMEM components with glutamine binding ([6]; DMEM diluted 1000× with PBS): did not interfere with the binding of glutamine; Kd ([6]; from I515/I610 ratio, glutamine standards in DMEM diluted 1000× with PBS, 2.0 μM protein, read-out: apparent binding constant K′d for a single binding site): 720 ± 100 nM
